One series has as its system CC(=O)C(=O)O. The series is described as follows: cells, lysate or membranes.
The next series deals with C[C@H](O)C(=O)O. The series can be described thus: cells, lysate or membranes.

The values that follow come from publication PMC2811425.

The term Km denotes the substrate concentration at which the rate is half of its maximum. In the case of MCT1 (Rattus norvegicus), the figures for the Km in the series on CC(=O)C(=O)O and in the series on C[C@H](O)C(=O)O were 1.2 ± 0.2 mM and 5.7 ± 1.2 mM, respectively.
